Source: the RNAGym collection of RNA variant scans (doi:10.7554/elife.90254)

B1: OR4K15 (parent)
chain: GUUAACGGUCAUAGGCCAUGGAAACUAGGAGCACCAUUUCGCUGCCAGUGAAGAAAUGAACAAAGAAAAUCUGGGCCAGGCAGGCAUCAAAAGAAAUAGUCUUGCGCUCAACCAGAAAGUCUGUAAUCAUUUUAAGGGUA

Variants of: B1
Test: self-cleavage, relative activity (ratio to wild type); higher = more cleavage; in vitro, sequencing; the parent is a self-cleaving ribozyme

Row | Variant | self-cleavage
1 | A33G G138A | 0.65
2 | A30U A56G | 0.82
3 | G31A A59U | 0.76
4 | G31A A59G | 1.04
5 | G29A U131C | 0.66
6 | A30C | 1.6
7 | A30G | 1.28
8 | A30U | 1.24
9 | A33U A111G | 0.03
10 | A30G C109A | 0.23
11 | G29U A90G | 1.1
12 | G31U A118G | 1.06
13 | G31A U57C | 1.2
14 | A33G A117G | 0.7
15 | A33G A117U | 0.74
16 | C32U A95G | 2.11
17 | A30U U102C | 1.81
18 | G31A A86G | 1.75
19 | G31A A86U | 0.91
20 | A30G U130C | 0.6
21 | A30G U130G | 1.09
22 | A30G A66G | 1.21
23 | A30G A66U | 1.22
24 | C32A A63G | 1.46

Row | Variant | self-cleavage
25 | A30G C40A | 1.42
26 | G31A U38C | 1.93
27 | A30U C81U | 0.51
28 | A30G A82U | 0.25
29 | A30G A82G | 0.6
30 | A30G U100C | 1.93
31 | A30G U100A | 0.49
32 | A33G C112G | 0.02
33 | C32A A90G | 1.27
34 | A33G A60G | 0.98
35 | A30G U38C | 1.62
36 | A30G U38A | 0.72
37 | A33C U38C | 1.53
38 | A30G U39C | 1.05
39 | A30G U39A | 0.39
40 | G31A A92G | 1.57
41 | A33G A129C | 0.63
42 | G31A A60G | 0.77
43 | C32U A67G | 1.67
44 | C32U A60G | 1.38
45 | A30G G106U | 0.04
46 | A30G G106A | 0.07
47 | A30G U132C | 1.36
48 | A33G A94U | 0.59

Row | Variant | self-cleavage
49 | G29C A91G | 1.08
50 | A30G A117C | 0.61
51 | A30G A117U | 0.99
52 | A33C U102C | 2.22
53 | A30U G93A | 1.63
54 | A33G U72C | 0.12
55 | A33G U72A | 0.12
56 | A33G U72G | 0.14
57 | A30C A68G | 0.67
58 | A33G G106A | 0.04
59 | A30G A69G | 1.27
60 | A30U U37C | 0.84
61 | A33U A55G | 1.84
62 | G29U U102A | 1
63 | G31C U139C | 1.53
64 | G31U A36G | 2.23
65 | A33U A56G | 1.57
66 | A33G G53C | 0.81
67 | A30U C113U | 0.04
68 | G29C C42U | 1.06
69 | A30G A114C | 0.07
70 | A33C G74A | 0.38
71 | A33G A135U | 0.95
72 | A30G U57C | 1.29

Row | Variant | self-cleavage
73 | A33U A116G | 1.55
74 | A30G A95U | 1.42
75 | A30G A95C | 1.26
76 | A33U A114U | 0.08
77 | A33U A114G | 0.64
78 | G31A A117G | 1.42
79 | A30U U120C | 1.29
80 | A30G G31A | 1.61
81 | A33G U132A | 0.51
82 | A33G U132C | 0.83
83 | A30U U43C | 1.88
84 | A33G U57C | 0.64
85 | G31U A92G | 1.27
86 | G29U A91G | 1.67
87 | C32U U38C | 1.02
88 | C32U C40U | 2.05
89 | A30G G123U | 0.53
90 | A30U A64G | 1.56
91 | A30C U120C | 0.69
92 | A33U A140G | 2.18
93 | A30U A52G | 1.08
94 | A30G U37G | 1.08
95 | A30G C105U | 0.17
96 | A33C G73A | 0.33

Row | Variant | self-cleavage
97 | A30U A63G | 2.01
98 | A30U U49C | 1.48
99 | A30U U49A | 1.3
100 | A33G A91G | 0.29
101 | C32G A96U | 1.87
102 | A30G A67G | 0.91
103 | A30G U49G | 1.48
104 | A33G A67U | 1.36
105 | A30U U38C | 1.69
106 | A30G U103A | 0.17
107 | A30G A62C | 1.38
108 | A30G A56U | 1.02
109 | A30G A56G | 1.27
110 | A30U C77U | 1.77
111 | G31A U43A | 2.08
112 | A33U A78G | 0.29
113 | G29A U103C | 0.77
114 | A33U A47U | 0.84
115 | A33U A47G | 1.68
116 | A33G C76U | 0.12
117 | A30G A94G | 1.29
118 | A33G A96G | 0.96
119 | A30U A54C | 1.77
120 | G31A A55G | 1.7

Row | Variant | self-cleavage
121 | A33G A98U | 1.19
122 | A30U A60G | 0.45
123 | A33G G58A | 0.55
124 | A33G C81U | 0.17
125 | A33G A64C | 1.17
126 | A33G A64U | 0.99
127 | A33G A126G | 0.7
128 | A33C A67U | 1.28
129 | A30U U108A | 0.05
130 | A33U C77A | 1
131 | A33U A82G | 0.88
132 | C32U U57C | 1.07
133 | A30C A96G | 1.43
134 | A30C U38C | 1.02
135 | A33G A69G | 0.28
136 | G29C U127C | 0.39
137 | G31A G137U | 1.5
138 | A33G U100C | 2.23
139 | A30G G58A | 0.67
140 | A33G U130C | 0.66
141 | A33G U130A | 1.1
142 | A33G G115U | 0.06
143 | A33G U120G | 0.65
144 | A30G C112A | 0.02

Row | Variant | self-cleavage
145 | A30G C112U | 0.04
146 | A30U C107A | 0.01
147 | C32G A54U | 1.14
148 | A33G A82U | 0.1
149 | A33G A82G | 0.35
150 | A30G C71U | 0.62
151 | C32U A69G | 1.21
152 | A33C A66U | 1.52
153 | C32A A110U | 2.04
154 | A33G U103A | 0.46
155 | A33G U103C | 0.4
156 | A30G A51G | 1.07
157 | A33U A96G | 0.16
158 | A33U A62G | 1.52
159 | A33U A62U | 2.26
160 | A30C A51U | 2.04
161 | A33G A89G | 0.84
162 | A33G A89U | 1.27
163 | A30G A116C | 0.03
164 | A30G A116G | 0.66
165 | A33G C113U | 0.02
166 | A33G U39A | 1.23
167 | A33G U39C | 0.8
